Measurements published in the DeepSol protein solubility set.

experiment: soluble on expression in E. coli; label from the status in PepcDB or PDB records

Q: For “MSLTVSPLSGSLTPIGSEVKRGAELAVQEQAAAFKALGYDLVLTPYDDQASATLAPQIARTIVADKNVLGVVGALNSSVSNVIAQAFGPAKLAMISPASTGDQLTQNGWNHFSRVVAPDSAQGVAAADYIAEELKAGSVVVISDNTAYGNGLTRVLMANLKKRKVPVAAYMGASTPAQIAEAVKRVKASSADVVYFGGTDDTGSQLVKALRAAGVTATFMGGDGLDSPSFLQRAGIAGAGVVYSTVFGPVSAFSNALDFSDRYRAAYKTKPSGVAVYAYDATNTLLSAIKAAAGNSRTLPTRAEVSAAVRKVNLPACFSADKSRCATITGAIAFSDSGERLRSRVMIMRFDDVLQPQVAKVQTVNAESLKEGHHHHHH”, which “soluble on expression in E. coli” value is on record?
A: soluble

Q: Which “soluble on expression in E. coli” value does the source give for “MSLTYEKLYELRQTLRPTTKDGLYTDNEKNREILTVRWSGNTENPKNFSAVAIGINPSKANDERSDKTLTQLARFLDMYGFTNFKMLNIFSSYSTQQTGIRANTQTDFSKFKGCLEDADMIILAWGTDRGAYKDEKNRILEFLKAEKFMEKVFCISETGNSSDTRHPSRISYSYQLVQFEESAEGGSHHHHHH” here?
A: soluble

Q: With “MSLVMKASVDDDDSGWELSMPEKMEKSNTNWVDITQDFEEACRELKLGELLHDKLFGLFEAMSAIEMMDPKMDAGMIGNQVNRKVLNFEQAIKDGTIKIKDLTLPELIGIMDTCFCCLITWLEGHSLAQTVFTCLYIHNPDFIEDPAMKAFALGILKICDIAREKVNKAAVFEEEDFQSMTYGFKMANSVTDLRVTGMLKDVEDDMQRRVKSTRSRQGEERDPEVELEHQQCLAVFSRVKFTRVLLTVLIAFTKKETSAVAEAQKLMVQAADLLSAIHNSLHHGIQAQNDTTKGDHPIMMGFEPLVNQRLLPPTFPRYAKIIKREEMVNYFARLIDRIKTVCEVVNLTNLHCILDFFCEFSEQSPCVLSRSLLQTTFLVDNKKVFGTHLMQDMVKDALRSFVSPPVLSPKCYLYNNHQAKDCIDSFVTHCVRPFCSLIQIHGHNRARQRDKLGHILEEFATLQDEAEKVDAALHTMLLKQEPQRQHLACLGTWVLYHNLRIMIQYLLSGFELELYSMHEYYYIYWYLSEFLYAWLMSTLSRADGSQMAEERIMEEQQKGRSSKKTKKKKKVRPLSREITMSQAYQNMCAGMFKTMVAFDMDGKVREGHHHHHH” as the sequence, how does the “soluble on expression in E. coli” value read?
A: not soluble

Q: For “MSLVRIKDIALKAKVSSATVSRILNEDESLSVAGETRQRVINIAEELGYQTVAKRRKSRGQKQRAQPLIGVLSCLSPDQERQDPYFSSIRKGIEKECFEQEIFITNSIHLGSFQEHIFRELDGVIVIGRVHDEAVKHISGRLEHAVFINHSPDPQAYDSIGIDFESASRQAIDHLFDLGYKRLGYIGGQEKEHTLKDGQSIRRTIEDKRLTAFLESAAPQPEHVLIGEYSMREGYRLMKKAIDQGHLPEAFFIASDSMAIGALKALQEAGLQVPRDTAIVSFNGIEEAEFASTPLTTVKVYTEEMGRTGVKLLLDRLNGRTLPQHVTLPTTLIVRQSCGCTAKEGHHHHHH”, which “soluble on expression in E. coli” value is on record?
A: soluble

Q: With “MSLWEFYMPTDVFFGEKILEKRGNIIDLLGKRALVVTGKSSSKKNGSLDDLKKLLDETEISYEIFDEVEENPSFDNVMKAVERYRNDSFDFVVGLGGGSPMDFAKAVAVLLKEKDLSVEDLYDREKVKHWLPVVEIPTTAGTGSEVTPYSILTDPEGNKRGCTLMFPVYAFLDPRYTYSMSDELTLSTGVDALSHAVEGYLSRKSTPPSDALAIEAMKIIHRNLPKAIEGNREARKKMFVASCLAGMVIAQTGTTLAHALGYPLTTEKGIKHGKATGMVLPFVMEVMKEEIPEKVDTVNHIFGGSLLKFLKELGLYEKVAVSSEELEKWVEKGSRAKHLKNTPGTFTPEKIRNIYREALGVEGGSHHHHHH” as the sequence, how does the “soluble on expression in E. coli” value read?
A: soluble

Q: With “MSLYHDGPIEVLPGVWLGAEESVGRWDIWAGNTAGNTVRVVNVAQEVEDPFDAAGPGRVSGWPRPSALPAETAKRRMKLRTYPAVVGDGTRPHVEYCHARWSHGELGLADLPADACLGDVLYPRAPENNEGLWRFWETIRWMEEGRQGGTPILIHSQCGVSRSATLAIAYTMALAAAGAMPQYLGHIRVMQDAYDFVKGKSCWIGPNHSLVFQLVDFARNLTTLLSEGHHHHHH” as the sequence, how does the “soluble on expression in E. coli” value read?
A: soluble

Q: With “MSLYRLLIVEDEHLIRKWLRYAIDYQSLNILVVGEAKDGKEGAQLIQEEQPDIVLSDINMPIMTAFDMFEATKGQSYAKIILSGYADFPNAQSAIHYGVLEFLTKPLEKQALIDCLKTIMARIEEHKEKHLQEHTELYLPLPQANDQVPEVIKDMLAWIHSHFHGKIVISQLAHDLGYSESYLYTVTKKHLHITLSDYINQYRINQAIQLMFREPDLMVYQIAEAVGIYDYRYFDRVFKKYLGQTVKAFKEEHIFKQMDEGHHHHHH” as the sequence, how does the “soluble on expression in E. coli” value read?
A: soluble

Q: With “MSLYSTDSGNLFHAGRILVVLVGLPATSKTLLSVAITRYTRWLGVRTKSFHFSEYKESAKNIPSDYFCVVPTSKEGVAFVEKLRMQMLNDILAFFNDLSGQLAIYDALNIRKIDRKNLETTFSEIGVKVLFIESIVSDQEIMNRNIALALESNDYKGLSTDEAIDEYMRRLSVNEPYYEMMTHDEELSYIKYINLGKQIIVKDNIHGYLVNKIVFFLMNLRQKKGCVYFARCGTSDKDNYIHDEELNEEGIHYSQVLKDFVLQRIKQKRQAKKNSDSLVEVIDGSHDEDLKTSLIVWTGPRKRTHDTALFFSKEGIKVQQRSELRQLNPGSIADLTDQQIMDKFPSEYKESLKDPYHFRFPRAESYHDLAVRMEPLLLEMEHTSKDILIIAHESTLRVLYGYLMACTCVELPNLNFTRDKLVEISFSPFCNTVELLNIPLTEGHHHHHH” as the sequence, how does the “soluble on expression in E. coli” value read?
A: soluble

Q: With “MSMDNHIVIMAGGIGSRFWPMSTPECPKQFIDVMGCGRTLIQLTADRFDGVCPRENVWVVTSEKYIDIVREQLPEIPESNILAEPCARNTAPCIAYACWKIKKKHPNANVVVTPSDALVINTGEFRRVVEKALRFTDNSSAIVTLGIKPTRPETGYGYIAAGDQIMTDKEIFTVDAFKEKPDRETADRYLAEGNYFWNAGIFVWNVRTITSVMRVYAPGIAQIFDRIFPDFYTEKENETIKKLFPTCEAISIDYAVMEKAQEIYVLPASFGWSDLGTWGALRGLLPQDKSGNATVGADVRLYESKNCIVHTSEEKRVVIQGLDGYIIAEKDNTLLICKLDEEQRIKEFSK” as the sequence, how does the “soluble on expression in E. coli” value read?
A: not soluble

Q: For “MSMNRQEISDLCVKSLEGRMVGTEAQNIENGNAFYRYFFTNFPDLRVYFKGAEKYTADDVKKSERFDKQGQRILLACHLLANVYTNEEVFKGYVRETINRHRIYKMDPALWMAFFTVFTGYLESVGCLNDQQKAAWMALGKEFNAESQTHLKNSNLPHV”, which “soluble on expression in E. coli” value is on record?
A: not soluble

Q: For “MSMQEMVTISIVTYNSRYIFNVLDQLKAELGTDSIYDIHIYDNHSETAYLEKLTTYEPFITIHRAEENQGFGHGHNQVLFNASTKYAIIFNPDVLVTKDVLDRLLNRIKIDKNIAVVSPKVLNEDGTTQYLVRQKLDVFDYMLRFIPFQFVKKIFDKRLSIYECRDLSDTETTDIKMGSGCFMLIDREKFVEIGGFDERFFMYFEDNDLCLRFGKAGYRILYTPFETVVHMYEKGAHKSRKLFKIFMQSMGKFFNKWGWRFFLEHHHHHH”, which “soluble on expression in E. coli” value is on record?
A: soluble

Q: Which “soluble on expression in E. coli” value does the source give for “MSNEISDRKVSDTLKDKKPMSLLLLGTDTGEFGRSYKGRTDTIMMMVINPKTNKTTVVSLPRDMKVNLPDYPDYSPAKINAAYTYGGVDETVKTIKKYFNVPTDAYVMVNMGGLEKAIDQVGGVTVKSPLTFDYEGYHFTKGVTYHMNGKKALAFSRMRYDDPRGDYGRQERQRLVIMALLKSSISYKTVVNQTFLNSISKQTMTNLTFDNMVALAQNYRHATDNVTTDHAQGQGDWENGVAYESVSQAECQRISNKLRAALGLKPETLKTGELEHHHHHH” here?
A: soluble

Q: Which “soluble on expression in E. coli” value does the source give for “MSNEPESTQHKSALQGLKGYLSSQILGQEKLVDRLLIALLADGHLLVEGAPGLAKTKAIKDLAEGLEAEFHRIQFTPDLLPADITGTEIYRPETGTFVFQQGPIFHHLVLADEINRAPAKVQSALLEAMAERQVSVGRSTYDLPQLFLVMATQNPIEQEGTYPLPEAQLDRFLMHVKIGYPEASVERRILQQARGEALNGEARPERRVTQETIFAARQEILGLYMADAVEEYLVQLIMATRTPAKHDAELAEWISYGASPRGSIALDRCARAHAWLGGRDFVSPEDIQAVLFDVLRHRLILTFEAEAAGIDQDRVVQRILDVVAVALEHHHHHH” here?
A: soluble

Q: For “MSNGAWTDQENDLIVADYFAMLADDVSGRPYNKAEHRRGLLPLLNDRSEGSVEFKHQNISAVLKGLGEDWIPGYKPAFNFQMTLVDAVARWLALNPAWLGRHSGTRAPTGLAEVRPIWIGPPPTLSNQPPPQELEQMLHIARKFDVAARDERNRALGRAGEERVLAHERATLKSAGRDDLARNVRWVSEEDGDGAGYDIASFALDGSPRLIEVKTTNGWERTPFHISRNELAVAEARRSEWSLFRLWNFAREPKAFELHPPLGAHVSLTATTFQASLHLEHHHHHH”, which “soluble on expression in E. coli” value is on record?
A: not soluble
